From the supplement of paper PMC9170038

Tested on: K4 kissing-loop RNA reporter
Assay: apparent KD of K4 kissing-loop reporter; higher = weaker reporter binding
Conditions: Eterna round: R107
Method: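 RNA-MaP round R107: designed RNA switches with theophylline, tryptophan, arginine or FMN aptamers are transcribed on-chip within common flanks. They are titrated with a labelled K4 kissing-loop RNA reporter in RNA-MaP buffer (100 mM Tris pH 7.5, 80 mM KCl, 4 mM MgCl2), without ligand or with the indicated ligand. Median apparent KD per design.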

[1] = input ligand: theophylline 20 uM
[2] = input ligand: tryptophan 2.4 mM
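Further: bound reporter read as fluorescence of individual clusters on recovered sequencing chips by microscopy, with normalized cluster intensities fitted with a binding model.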

Sequence | apparent KD of K4 kissing-loop reporter (input ligand: FMN 200 uM) | apparent KD of K4 kissing-loop reporter (input ligand: arginine 13.2 mM) | apparent KD of K4 kissing-loop reporter (input ligand: none) | apparent KD of K4 kissing-loop reporter [1] | apparent KD of K4 kissing-loop reporter [2]
UAUCUUUACUGAAGGAGCGAGCAUUUUGGAGUGAUGUUCCGAGCGAGUGAUGUUCGCAUAGCUCAGGUAGGUCGCAGUGGGAAAA [Same State Arginie B GF 15] | 152 nM | 149 nM | 143 nM | 162 nM | 138 nM
UAUUCUUAUCUUAGUUGAUUUCUAAUUAAACGAGGACCGGUACGGCCGCCACUCGGUUAUGAGUGAUGUUCAUGGAAUUACAUAA [JR_SSTryptoA_Sub020] | 275 nM | 481 nM | 413 nM | 548 nM | 143 nM
UCACGAGUGAUGUUCGUCGCAAUCACCGAAGGAGCGGGCGAAAGCCCAGGUAGGUCGCGGUAGAAUAAUGAUUUUAUUCGAUUGC [Same State Arginine A GF 26] | 786 nM | 602 nM | 756 nM | 613 nM | 568 nM
UCCUGCAAUCGCCCACGAAAGUGGAUCGAUACCAGAGUCGAAAGACUCCCUUGGCAGCGAGUGAUGUUCGAAGCAGGUAAAUAAA | 771 nM | 612 nM | 765 nM | 605 nM | 637 nM
UCCUGCAAUCUGCCACGAAAGUGGGUUGAUACCAGAGUCGAAAGACUCCCUUGGCAGCGAGUGAUGUUCGUUGCAGGUGAAUAAA [MatMod 9 - Jieux - Exclusion - Theophylline A] | 118 nM | 264 nM | 444 nM | 309 nM | 323 nM
UCGAAAUGCGACUCCUAGUUACACCGGGAAGGAGCGUGGAUAACCGCAGGUAGGUCGCCCGGAAGCCGGACCAGUGAUGUUGGUC [Exclusion Arginine A Gf 28] | 207 nM | 177 nM | 203 nM | 274 nM | 155 nM
UCGAAAUGCGUCUCCUAGUUACUCCGGGAAGGAGCGUGGAUAACCGCAGGUAGGUCGCCCGGAAGCCGGACCAGUGAUGUUGGUC [Exclusion Arginine A Gf 29] | 216 nM | 179 nM | 221 nM | 186 nM | 182 nM
UCGAACGAUGGAAGGAGCGCUCGUCAGUCCUGCGAGUGAUGUUCGUGGGUAAAUAGUCGCGAGCAGGUAGGUCGCCAUCUUGGGC [Reriat] | 153 nM | 132 nM | 151 nM | 136 nM | 134 nM
UCGAGUUGACGAAAAGUCAACUCGUGAGAUACCAGUGACGAAAGUCACCCUUGGCAGCUCACUGCCAGUGAUGUUGGUGUAUAGA [#06 K4 Theophylline A Same State] | 856 nM | 840 nM | 1030 nM | 996 nM | 955 nM
UCGGCGUACGGGCGGGUAGUGAUGUUGCUCCGAGGACCGGUACGGCCGCCACUCGAGGUACCAGUUCAUAGAACCUGGCACAUCA [theeternabot_exclusion_KL_Trp_A_23] | 409 nM | 296 nM | 541 nM | 261 nM | 266 nM
UCGGUAUAGUGAUGUUAUAUAGAGAGUGAUACCAGUUUAGAGAGAAACCCUUGGCAGCAUAGAAGAGUAUCAUUGGAGGAGGAGG [#20 K4 Theophylline A Exclusion] | 455 nM | 417 nM | 387 nM | 336 nM | 301 nM
UCUAACAAAUCGGCCGCCACUGAAAUAACCCAGGAGUGAUGUUCCAUCGUCCUAGACUACUCUUCCAGGACCGGGAUCUGUGUUC [theeternabot_exclusion_KL_Trp_B_25] | 298 nM | 348 nM | 529 nM | 472 nM | 284 nM
UCUAGUUCUACGGCCGCCACUAUCGAGCACGGGUAUUAGUGAUGUUGAGGUCGUGUCUCCCUCCCUAGGACCGGGUAGAUCUUAG [theeternabot_sameState_KL_Trp_B_4] | 890 nM | 482 nM | 667 nM | 629 nM | 557 nM
UCUCGGGCCAGUGAUGUUGGCGGCUAGUGGCGAGGACCGGUACGGCCGCCACUCGGCGCAGCAGCGGAGUGAUGUUUCGUGAGUA [Same State Tryptophan A GF 17] | 363 nM | 301 nM | 377 nM | 441 nM | 198 nM
UCUGGAGCAUAUGAUACCAGCAGUGAGAGACAGGAAGUAUAGUGAUGUUAUAUGAGAGAAUGCCCUUGGCAGCGUGUGCAGUGGG [SSTheophylB.O] | 119 nM | 157 nM | 108 nM | 119 nM | 75.2 nM
UCUGGUAUAUCUGAUACCAGAGUAUAGUAUCAAUUGCAUAUGGAGUGAUGUUCCAUACAACUCCCUUGGCAGCAGAUCUAUCUCU [Same State Theophylline B GF 24] | 219 nM | 249 nM | 246 nM | 286 nM | 195 nM
UCUGUACCGGGAAGGAGCGUGAAUGAGAAUGGAUAUAGUGAUGUUAUGUAUACGAACGAAUCGCAGGUAGGUCGCCCGGAUCCCU [SSArgB.aA] | 674 nM | 380 nM | 653 nM | 474 nM | 467 nM
UCUUGAGUAUAUGAUACCAGCAGUGAGAGACAGGAAGUAUAGUGAUGUUAUAUGAGAGAAUGCCCUUGGCAGCGUGUGCGGUGGG [SSTheophylB.S] | 103 nM | 144 nM | 112 nM | 187 nM | 94.7 nM
UGACUGGACUGAAGGAGCGCGAAACUCCUAGUGAUGUUAGGAUAACGAGACAAAGUCUCGACGCAGGUAGGUCGCAGUCUAGUCU | 130 nM | 92.6 nM | 116 nM | 119 nM | 120 nM
UGACUGGAUGGAAGGAGCGCUAAACUCCUAGUGAUGUUAGGGACACGAGGCAAAGCCUCGAAGCAGGUAGGUCGCCAUCUAGUCU [FiskerMod 22 - Jieux - Same State - Arginine B] | 184 nM | 148 nM | 174 nM | 182 nM | 167 nM
UGAUAAAGCAGUGAUGUUGCAAGUAAUGAUACCAGUUAAGAAGAGAACCCUUGGCAGCAUAAAGUGCGCUCUGAUGAGUGUGCUU [whbob_SS_Theo_A_w52] | 96.7 nM | 130 nM | 111 nM | 152 nM | 95.6 nM

Sequence | apparent KD of K4 kissing-loop reporter (input ligand: FMN 200 uM) | apparent KD of K4 kissing-loop reporter (input ligand: arginine 13.2 mM) | apparent KD of K4 kissing-loop reporter (input ligand: none) | apparent KD of K4 kissing-loop reporter [1] | apparent KD of K4 kissing-loop reporter [2]
UGAUACCAGACGGCCGCCACUAGAGCUAGCAAAGCUAGCAAGUGAUGUUUGAGGAGUGAUGUUCCUAGGACCGGGUCUGGUAUCU [TrypBX 2 #Palindromic #SwitchBubble #StaticStem] | 103 nM | 85.5 nM | 96.2 nM | 86.8 nM | 39.9 nM
UGAUACCAGACGGCCGCCACUCCUGCAAGUCAAAGACUUGCUAAAAGGAUCGUCCAGUGAUGUUGGAGGACCGGGUCUGGUAUCU [TrypBX 19 #SwitchBubble #Palindromic #StaticStem] | 795 nM | 621 nM | 744 nM | 638 nM | 486 nM
UGAUACCAGACGGCCGCCACUGGGACCGGGAGUGAUGUUCCAAAUAAAAGAAGCUCGGCCGCCACUAGGACCGGGUCUGGUAUCU [TrypBX 21 #DoubleAptamer #SwitchBubble] | 395 nM | 261 nM | 339 nM | 367 nM | 182 nM
UGAUACCAGACGGCCGCCACUGGUGCAUGUCAAAGACAUGCUAACCAAAUCGUGGAGUGAUGUUCCAGGACCGGGUCUGGUAUCU [TrypBX 22 #SwitchBubble #Palindromic #StaticStem] | 235 nM | 207 nM | 217 nM | 239 nM | 570 nM
UGAUACCAGACUGAUACCAGCCAGUGAUGUUGGCUAAAACCAAAAGCUGGCAAAGCCAGCGGCCCUUGGCAGCAGUCUGGUAUCU [TheoBX 1 #SwitchBubble #StaticStem] | 816 nM | 694 nM | 806 nM | 1010 nM | 667 nM
UGAUACCAGACUGAUACCAGCGAGUGAUGUUUGCUGAAAUCAGGGUCAAAGACCCUGUCUCGCCCUUGGCAGCAGUCUGGUAUCU [TheoBX 21 #SwitchBubble #StaticStem] | 735 nM | 601 nM | 754 nM | 223 nM | 688 nM
UGAUACCAGGCGGCCGCCACUCCCGCAGGUCAAAGACCUGCGAAGCUGGUUCUCCAGUGAUGUUGGAGGACCGGGCCUGGUAUCU [FiskerMod 26 - Jieux - Exclusion - Tryptophan B] | 191 nM | 141 nM | 152 nM | 168 nM | 436 nM
UGAUACCAGGCGGCCGCCACUCCUACAGGUCAAAGACCUGUAAAACUGGUUUUUUAGUGAUGUUGGAGGACCGGGCCUGGUAUCU [FiskerMod 28 - Jieux - Exclusion - Tryptophan B] | 181 nM | 108 nM | 178 nM | 183 nM | 177 nM
UGAUACCAGGCGGCCGCCACUCCUACAGGUCAAAGACCUGUAGAACUGGUUUUUUAGUGAUGUUGGAGGACCGGGCCUGGUAUCU [FiskerMod 30 - Jieux - Exclusion - Tryptophan B] | 698 nM | 217 nM | 394 nM | 296 nM | 321 nM
UGAUAGGACAGAAGGAGCGGAAGUGAUGUUUCCAAAUGGAUAAGGUGUCAAAAGACACCCUUCCAGGUAGGUCGCUGUCCUAUCU [ArgBX 14 #Palindromic #SwitchBubble #StaticStem] | 111 nM | 112 nM | 130 nM | 102 nM | 101 nM
UGAUAGGACAGAAGGAGCGGAGGUCGUCAAAGACGACCAAUACGUUAAAUAGGAGUGAUGUUCCAGGUAGGUCGCUGUCCUAUCU [ArgBX 30 #SwitchBubble #StaticStem] | 123 nM | 119 nM | 123 nM | 129 nM | 106 nM
UGAUUGCCAGUGAUGUUGGCAGUUUCUGAAGGAGCGCGUGAAAACGCAGGUAGGUCGCAGAUUAGUGCCAAUUGAUCGAAAGAUC [KL-XArg-A4] | 208 nM | 227 nM | 214 nM | 193 nM | 205 nM
UGCAUGCUUGGAGUGAUGUUCCAAGAUGAUACCAGUGCUUUUUUGCACCCUUGGCAGCGUCUGAUUGCAUGCACGUCGAAAGACG | 531 nM | 471 nM | 529 nM | 490 nM | 517 nM
UGGAGUGCCUGGUCGUCACUAUGCCAACCACGAGGACCGGUACGGCCGCCACUCGUGAGGGAUAUUCAGAAAGUGAUGUUUUUUG [theeternabot_exclusion_KL_Trp_A_1] | 590 nM | 370 nM | 529 nM | 450 nM | 403 nM
UGGAGUUGACGAAAAGUCAACUCCUGAGAUACCAGUGACGAAAGUCACCCUUGGCAGCUCACUCCCAGUGAUGUUGGUUCAUAAG [#04 K4 Theophylline A Same State] | 328 nM | 370 nM | 601 nM | 496 nM | 356 nM
UGGAGUUGACGAAAAGUCAACUCCUGAGAUACCAGUGACGAAAGUCACCCUUGGCAGCUCACUGCCAGUGAUGUUGGAACUAAAG [#02 K4 Theophylline A Same State] | 308 nM | 158 nM | 256 nM | 452 nM | 216 nM
UGGAGUUGACGAAAAGUCAACUCCUGAGAUACCAGUGACGAAAGUCACCCUUGGCAGCUCACUGGCAGUGAUGUUGCAAAAUAAA [KL-SSTheo-A4] | 135 nM | 52.2 nM | 60 nM | 84.7 nM | 123 nM
UGGAGUUGACGAAAAGUCAACUCCUGAGAUACCAGUGACGAAAGUCACCCUUGGCAGCUCACUGGCAGUGAUGUUGCACGAUAAA [KL-SSTheo-A1] | 123 nM | 66.1 nM | 80 nM | 181 nM | 101 nM
UGGGAUGUUAAAGGAUAUAGCAAGUGAUAUAAGAAAGUGAGUGAUGUUUAUGUAGGUGAUGAUAUGUUAGAAGGUUAACAAAACG [abcdefgh] | 296 nM | 158 nM | 211 nM | 185 nM | 218 nM
UGGUGCCAUUGGCGGGUAGAUAGUGGUGGCAAGGAUAUGUGAGCGAACAGAAGGUGCAUCAAGUUCAGUGAUGUUGGGCUCGAUU [theeternabot_sameState_KL_FMN_A_20] | 264 nM | 184 nM | 275 nM | 254 nM | 234 nM
